Results from US20220289841A1 (CHILDREN S HOSPITAL OF PHILADELPHIA, published 2022).

Target: T1, full-length CD22 (UniProt P20273 20-847, limits assumed)
T1 construct: Re-expressed in OCI-Ly10 cells whose endogenous CD22 was deleted by CRISPR; also called CD22 full length (FL); CD22-full length
T1 sequence (looked up): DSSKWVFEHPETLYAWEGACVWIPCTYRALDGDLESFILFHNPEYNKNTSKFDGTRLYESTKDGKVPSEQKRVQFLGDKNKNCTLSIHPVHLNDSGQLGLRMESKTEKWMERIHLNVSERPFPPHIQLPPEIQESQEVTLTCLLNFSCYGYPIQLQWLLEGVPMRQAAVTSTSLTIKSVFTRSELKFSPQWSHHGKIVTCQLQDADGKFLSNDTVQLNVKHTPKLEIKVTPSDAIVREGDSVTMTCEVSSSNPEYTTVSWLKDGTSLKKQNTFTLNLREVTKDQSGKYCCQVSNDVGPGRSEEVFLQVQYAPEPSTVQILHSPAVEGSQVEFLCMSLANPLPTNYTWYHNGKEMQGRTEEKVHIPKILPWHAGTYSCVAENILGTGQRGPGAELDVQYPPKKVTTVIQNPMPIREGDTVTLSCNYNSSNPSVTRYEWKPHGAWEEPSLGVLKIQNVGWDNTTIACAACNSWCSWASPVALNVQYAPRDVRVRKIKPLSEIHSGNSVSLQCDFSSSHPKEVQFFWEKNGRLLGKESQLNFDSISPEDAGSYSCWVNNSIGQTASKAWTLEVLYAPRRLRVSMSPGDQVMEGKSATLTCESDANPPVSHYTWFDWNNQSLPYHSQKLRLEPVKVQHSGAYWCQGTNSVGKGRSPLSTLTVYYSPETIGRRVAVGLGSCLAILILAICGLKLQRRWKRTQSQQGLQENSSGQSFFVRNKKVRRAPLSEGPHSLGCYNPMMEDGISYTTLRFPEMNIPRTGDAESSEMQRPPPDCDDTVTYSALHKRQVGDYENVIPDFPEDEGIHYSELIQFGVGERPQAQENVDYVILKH
Assay: OCI-Ly10 cells with endogenous CD22 deleted by CRISPR, reconstituted with full-length CD22; Western blot (FIG. 5B)
Description: One top event was the increased skipping of exon 5-6 (Δex5-6) in CD22 in B-ALL. The inventors validated the RNA expression of this event in 18 out of 18 primary B-ALL samples with RT-PCR. And using Nanopore-based long read RNA sequencing, they confirmed the Δex5-6 event exists within a larger translatable transcript in B-ALL cell lines and B-ALL patient-derived xenografts (PDX). BALB/C mice were then immunized against a peptide containing the junction site of exon 4 and 7 to generate hybridomas and obtain a monoclonal antibody (mAb) against CD22 Δex5-6. To validate the specificity of the identified mAb, the inventors used CRISPR to delete endogenous CD22 in OCI-Ly10 cells and reconstituted the cells with either CD22 Δex5-6 or full length CD22. […] The inventors also validated that this mAb specifically binds to endogenously expressed CD22 Δex5-6 in multiple B-ALL cell lines and B-ALL patient-derived xenografts (PDX) by immunoprecipitation and Western blot analysis. In next steps, the inventors plan to develop antibody-drug conjugates and chimeric antigen receptors from our mAb for further therapeutic testing.

binding result: no binding
B1: Clone 11F11 monoclonal antibody against CD22 Δex5-6 (antibody, V domains shown)
VH: RVQLQQPGADLVRPGASVKLSCKASGYTFTSYWMSWVKQRPGQGLEWIGMIDPSDSEAHYNQMFRDKATLTVDNSSSTAYMVLSSLTSEDSAVYYCSNDFDYWGQGTTLTVSS
VL: not shown
notes: Mouse hybridoma antibody, from BALB/C mice immunized with a peptide containing the exon 4/exon 7 junction; No isotype is stated for the clone; also called the mAb; CD22 Δex5-6 antibody
